{"source": "paper PMC8401255", "molecular_target": "gramicidin A (Bacillus brevis)", "assay": "single-channel electrophysiology on a planar lipid bilayer; gA in a free-standing DPhPC planar bilayer (painting method, n-decane); dimer (channel) lifetime recorded with an Axopatch amplifier for 30 min at 20 °C; lidocaine or tetracaine in the buffer at 1, 3, 6 and 10 mM; lifetime normalised to that without local anesthetic (tau/tau0); monomer to dimer"}
{"substance": "gramicidin A (peptide)", "values": [{"measurement": "normalized dimer lifetime (tau/tau0) at 1 mM lidocaine", "result": 1.33}, {"measurement": "normalized dimer lifetime (tau/tau0) at 1 mM tetracaine", "result": 1.88}, {"measurement": "normalized dimer lifetime (tau/tau0) at 10 mM lidocaine", "result": 3.66}, {"measurement": "normalized dimer lifetime (tau/tau0) at 10 mM tetracaine", "result": 6.85}]}
